For orientation: Kd means the concentration at which binding is half-saturated. Read a low Kd as higher affinity.

For test [1], the target named is T1, extracellular domain (ECD) of human or mouse RNF43 (human or mouse).
T1 construct: extracellular domain; also called RNF43 ECD
The experiment in a line: SPR (Biacore), nanobody on ECD. A general note: SPR reads the build-up and loss of mass on a sensor chip optically.

In test [2] the target is T2, extracellular domain (ECD) of human GODZILLA (RNF167) (human, UniProt Q9H6Y7 25-173, limits assumed).
T2 construct: extracellular domain; also called GODZILLA ECD
Briefly: SPR (Biacore), titrations at equilibrium, Biacore Analysis Software; row GRAIL-D1, column GODZILLA (hRNF167).

Test [3] deals with T3, extracellular domain (ECD) of human GOLIATH (RNF130) (human, UniProt Q86XS8 28-194).
T3 construct: extracellular domain; also called GOLIATH ECD
T3 sequence (looked up): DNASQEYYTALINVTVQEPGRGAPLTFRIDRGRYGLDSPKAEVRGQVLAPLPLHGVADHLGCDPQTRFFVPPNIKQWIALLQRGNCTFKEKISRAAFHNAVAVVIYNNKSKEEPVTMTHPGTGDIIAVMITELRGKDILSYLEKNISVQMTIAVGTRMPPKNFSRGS
The experiment in a line: SPR (Biacore), ligand hRNF130 ECD (GOLIATH), analyte GRAIL-D1.

In test [4] the target is T4, extracellular domain (ECD) of human GRAIL (RNF128) (human, UniProt Q8TEB7 39-207, limits assumed).
T4 construct: extracellular domain; also called GRAIL ECD
T4 sequence (looked up): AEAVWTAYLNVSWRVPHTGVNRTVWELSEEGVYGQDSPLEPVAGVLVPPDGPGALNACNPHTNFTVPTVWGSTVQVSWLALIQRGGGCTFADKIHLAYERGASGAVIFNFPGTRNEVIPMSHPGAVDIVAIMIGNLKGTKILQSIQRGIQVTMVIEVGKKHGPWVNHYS
The experiment in a line: SPR (Biacore), titration at equilibrium, nanobody on ECD.

For test [5], the target named is T3, extracellular domain (ECD) of human …. The experiment in a line: SPR (Biacore), titrations at equilibrium, Biacore Analysis Software; row GRAIL-E1, column GOLIATH (hRNF130).
Test [6] addresses T2, extracellular domain (ECD) of human …. Briefly: SPR (Biacore), titrations at equilibrium, Biacore Analysis Software; row GRAIL-E1, column GODZILLA (hRNF167).
Test [7] shares this target. Briefly: SPR (Biacore), ligand hRNF167 ECD (GODZILLA), analyte GOLIATH-F8 [CONT. 3].
Test [8] deals with T4, extracellular domain (ECD) of human …. The experiment in a line: SPR (Biacore), titrations at equilibrium, Biacore Analysis Software; column ECD GRAIL (hRNF128).
Test [9] concerns the target T3, extracellular domain (ECD) of human …. The experiment in a line: SPR (Biacore), titration at equilibrium, nanobody on ECD.
For test [10], the target named is T4, extracellular domain (ECD) of human …. The experiment in a line: SPR (Biacore), ligand hRNF128 ECD (GRAIL), analyte GOLIATH-F2 [CONT. 2].
In test [11] the target is T2, extracellular domain (ECD) of human …. The experiment in a line: SPR (Biacore), ligand hRNF167 ECD (GODZILLA), analyte GOLIATH-F2 [CONT. 2].
Test [12] shares this target. The experiment in a line: SPR (Biacore), titrations at equilibrium, Biacore Analysis Software; row GOLIATH-D1, column GODZILLA (hRNF167).
For the next test, the target named is T5, hRNF43 ECD.
T5 construct: The human half of m18, which leaves the species open; also called extracellular domain of human RNF43
T5 chain: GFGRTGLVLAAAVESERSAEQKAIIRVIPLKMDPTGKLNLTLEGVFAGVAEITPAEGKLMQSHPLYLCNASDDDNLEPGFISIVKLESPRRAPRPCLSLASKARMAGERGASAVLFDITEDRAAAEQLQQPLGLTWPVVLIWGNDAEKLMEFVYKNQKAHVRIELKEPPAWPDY
The experiment in a line: SPR (Biacore), ligand hRNF43 ECD, nanobody as analyte.

The target in a further test is T6, mRNF43 ECD.
T6 construct: The mouse half of m18, which leaves the species open; also called extracellular domain of mouse RNF43
T6 chain: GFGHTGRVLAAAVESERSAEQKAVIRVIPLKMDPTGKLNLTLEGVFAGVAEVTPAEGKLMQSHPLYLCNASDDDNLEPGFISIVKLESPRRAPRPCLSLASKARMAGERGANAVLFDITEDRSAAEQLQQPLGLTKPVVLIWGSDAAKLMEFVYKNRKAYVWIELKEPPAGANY
Briefly: SPR (Biacore), ligand mRNF43 ECD, nanobody as analyte.

Another test has as its target T7, hZNRF3 ECD.
T7 construct: The human half of m19, which leaves the species open; also called extracellular domain of human ZNRF3
T7 chain: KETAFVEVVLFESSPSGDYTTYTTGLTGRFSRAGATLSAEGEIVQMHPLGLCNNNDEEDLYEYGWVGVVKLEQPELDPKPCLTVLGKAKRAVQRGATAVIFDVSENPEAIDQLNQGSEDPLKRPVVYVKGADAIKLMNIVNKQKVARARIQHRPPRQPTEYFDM
Briefly: SPR (Biacore), ligand hZNRF3 ECD, nanobody as analyte.

The target in test [13] is T8, extracellular domain (ECD) of human or mouse ZNRF3 (human or mouse).
T8 construct: extracellular domain; also called ZNRF3 ECD
The experiment in a line: SPR (Biacore), nanobody on ECD.

A further test addresses T9, mZNRF3 ECD.
T9 construct: The mouse half of m19, which leaves the species open; also called extracellular domain of mouse ZNRF3
T9 chain: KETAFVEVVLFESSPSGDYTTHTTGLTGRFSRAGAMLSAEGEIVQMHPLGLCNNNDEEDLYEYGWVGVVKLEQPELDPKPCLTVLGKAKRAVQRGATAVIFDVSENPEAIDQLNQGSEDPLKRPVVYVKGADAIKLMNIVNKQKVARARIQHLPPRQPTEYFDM
Briefly: SPR (Biacore), ligand mZNRF3 ECD, nanobody as analyte.

For test [14], the target named is T2, extracellular domain (ECD) of human …. Briefly: SPR (Biacore), titrations at equilibrium, Biacore Analysis Software; row GRAIL-E2, column GODZILLA (hRNF167).
The target in test [15] is T3, extracellular domain (ECD) of human …. The experiment in a line: SPR (Biacore), titrations at equilibrium, Biacore Analysis Software; row GRAIL-E2, column GOLIATH (hRNF130).
Test [16] addresses T4, extracellular domain (ECD) of human …. Briefly: SPR (Biacore), titrations at equilibrium, Biacore Analysis Software; row GOLIATH-A1, column GRAIL (hRNF128).
Test [17] concerns the target T2, extracellular domain (ECD) of human …. The experiment in a line: SPR (Biacore), titrations at equilibrium, Biacore Analysis Software; row GOLIATH-A1, column GODZILLA (hRNF167).

B1: RNF43 VHH of SEQ ID NO: 12 (VHH)
VHH: QVQLQESGGGLVQAGGSLRLSCAASGSIFWKPVMGWYRQAPGKEREFVAAITSGTNTYYADSVKGRFTISRDNAKNTVYLQMNSLKPEDTAVYYCAVDDYDVVEYPYWGQGTQVTVSS
notes: also called RNF43 nanobody
On to B1, for which the Kd in [1] is 41.5 nM.

B2: GRAIL (RNF128) VHH of SEQ ID NO: 1 (VHH)
VHH: QVQLQESGGGLVQAGGSLRLSCAASGYIFYGVHMGWYRQAPGKEREFVAAIDLGTTTYYADSVKGRFTISRDNAKNTVYLQMNSLKPEDTAVYYCAVYFDGLTNLPYWGQGTQVTVSS
notes: Purified nanobody; also called GRAIL nanobody
With B2, the binding result is recorded as “no binding” in test [2] and “no binding (tested: 500 (unit not printed))” in test [3]. The molecule further yielded a Kd in [4] of 8.99 nM.

B3: GRAIL (RNF128) VHH of SEQ ID NO: 2 (VHH)
VHH: QVQLQESGGGLVQAGGSLRLSCAASGNISVQLDMGWYRQAPGKEREFVAAINQGTTTYYADSVKGRFTISRDNAKNTVYLQMNSLKPEDTAVYYCAVYLYDIWNHPYWGQGTQVTVSS
notes: also called E1; GRAIL-E1
For the molecule B3, the binding result in test [5] and in test [6] was “no binding” each time. The molecule further came in with a Kd in test [4] of 7.92 nM.

B4: GOLIATH (RNF130) VHH of SEQ ID NO: 8 (VHH)
VHH: QVQLQESGGGLVQAGGSLRLSCAASGTISFIGYMGWYRQAPGKERELVASIASGTSTYYADSVKGRFTISRDNAKNTVYLQMNSLKPEDTAVYYCAATQYIQDAHRYWGQGTQVTVSS
notes: also called GOLIATH nanobody
Turning to B4, in test [7], the binding result is listed as “no binding (tested: 2000 (unit not printed))”. Further, the Kd was found to be 70.2 nM in test [8] and 130 nM in [9].

B5: GOLIATH (RNF130) VHH of SEQ ID NO: 7 (VHH)
VHH: QVQLQESGGGLVQAGGSLRLSCAASGTISVIGYMGWYRQAPGKERELVASIASGTSTYYADSVKGRFTISRDNAKNTVYLQMNSLKPEDTAVYYCAATHYIQDAHRYWGQGTQVTVSS
notes: also called GOLIATH nanobody
For the molecule B5, the binding result in test [10] and in test [11] was “no binding (tested: 4000 (unit not printed))” throughout.

B6: GOLIATH (RNF130) VHH of SEQ ID NO: 6 (VHH)
VHH: QVQLQESGGGLVQAGGSLRLSCAASGTISFIGYMGWYRQAPGKERELVASIASGTSTYYADSVKGRFTISRDNAKNTVYLQMNSLKPEDTAVYYCAATQYIQDVHRYWGQGTQVTVSS
notes: also called D1; GOLIATH-D1
Take B6: in test [12], the binding result is listed as “no binding”. Besides, binding in test [9] was put at a Kd of 6.38 nM.

B7: RNF43 VHH of SEQ ID NO: 11 (VHH)
VHH: QVQLQESGGGLVQAGGSLRLSCAASGTIFGLSDMGWYRQAPGKEREFVAAIAGGTITYYADSVKGRFTISRDNAKNTVYLQMNSLKPEDTAVYYCAAYKYDERYHSYWGQGTQVTVSS
notes: also called RNF43 nanobody
For B7, the binding result in the test with hRNF43 ECD and with mRNF43 ECD was “binds” each time. The molecule also had a dissociation constant Kd in test [1] of 163 nM.

B8: ZNRF3 VHH of SEQ ID NO: 14 (VHH)
VHH: QVQLQESGGGLVQAGGSLRLSCAASGTISYAHIMGWYRQAPGKERELVAGISQGSITNYADSVKGRFTISRDNAKNTVYLQMNSLKPEDTAVYYCAVISYDYIKSVPFRYWGQGTQVTVSS
notes: also called ZNRF3 nanobody
B8: the binding result in the test with hZNRF3 ECD and in the test with mZNRF3 ECD was “binds” in each case. Also, the dissociation constant (Kd) in test [13] was determined as 0.7 nM.

B9: GRAIL (RNF128) VHH of SEQ ID NO: 3 (VHH)
VHH: QVQLQESGGGLVQAGGSLRLSCAASGSISGGKGMGWYRQAPGKEREFVAAIGSGAITYYADSVKGRFTISRDNAKNTVYLQMNSLKPEDTAVYYCAVYTTALDEYPYWGQGTQVTVSS
notes: also called E2; GRAIL-E2
As for B9, the binding result in [14] and in [15] was “no binding” each time. Besides, binding in [4] was characterised by a dissociation constant (Kd) of 13.5 nM.

B10: GOLIATH (RNF130) VHH of SEQ ID NO: 5 (VHH)
VHH: QVQLQESGGGLVQAGGSLRLSCAASGYISGYYVMGWYRQAPGKEREFVASISYGASTYYADSVKGRFTISRDNAKNTVYLQMNSLKPEDTAVYYCAVDFDSNYAHTYWGQGTQVTVSS
notes: also called A1; GOLIATH-A1
On to B10, for which the binding result in [16] and in test [17] was “no binding” throughout. Also, the Kd in [9] stood at 8.18 nM.

B11: GRAIL (RNF128) VHH of SEQ ID NO: 4 (VHH)
VHH: QVQLQESGGGLVQAGGSLRLSCAASGTISYYYAMGWYRQAPGKEREFVAAIDLGTSTYYADSVKGRFTISRDNAKNTVYLQMNSLKPEDTAVYYCAAWSDYVTELPYWGQGTQVTVSS
notes: also called GRAIL nanobody
Regarding B11, in test [4], binding was characterised by a dissociation constant (Kd) of 148 nM.

B12: ZNRF3 VHH of SEQ ID NO: 13 (VHH)
VHH: QVQLQESGGGLVQAGGSLRLSCAASGTIFYTLFMGWYRQAPGKEREFVAGIGRGGITYYADSVKGRFTISRDNAKNTVYLQMNSLKPEDTAVYYCAVWYDFLHSDSQAYSYWGQGTQVTVSS
notes: also called ZNRF3 nanobody
Turning to B12, in test [13], the Kd came out at 18.1 nM.

These data come from patent US20240239891A1 (Stanford University, published 2024).
